Reference: the supplement of paper PMC12338614

B1: library; numbered along this chain (parent)
chain: MEVVDPQQLGMFTEGELMSVGMDTFIHRIDSTEVIYQPRRKRAKLIGKYLMGDLLGEGSYGKVKEVLDSETLCRRAVKILKKKKLRRIPNGEANVKKEIQLLRRLRHKNVIQLVDVLYNEEKQKMYMVMEYCVCGMQEMLDSVPEKRFPVCQAHGYFCQLIDGLEYLHSQGIVHKDIKPGNLLLTTGGTLKISDLGVAEALHPFAADDTCRTSQGSPAFQPPEIANGLDTFSGFKVDIWSAGVTLYNITTGLYPFEGDNIYKLFENIGKGSYAIPGDCGPPLSDLLKGMLEYEPAKRFSIRQIRQHSWFRKKHPPAEAPVPIPPSPDTKDRWRSMTVVPYLEDLHGADEDEDLFDIEDDIIYTQDFTVPGQVPEEEASHNGQRRGLPKAVCMNGTEAAQLSTKSRAEGRAPNPARKACSASSKIRRLSACKQQ

Variants of: B1
Assay: STK11 functional score (HeLa growth suppression), rescaled enrichment; synonymous median = 1, nonsense median = 0 (normalised score)
Details: with HeLa; variant type: missense
In short: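 The functional score takes the post/pre-selection log ratio, corrects it to wild type, rescales it to synonymous and nonsense medians, and merges it over codons and replicate transfections, with error from bootstrapping. Counts came from tiled gDNA amplicons sequenced on NextSeq (~2 million reads per tile). The libraries were POPCode codon-randomised, codon-optimised STK11 integrated by Bxb1 at an AAVS1 landing pad in HeLa, three regions with three transfections each.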

STK11 functional score, by site and new letter:
S271: A 1.11 | Y -0.251 | I 1.15 | R 1.04 | D 1.64 | Q 1.08 | T 1.17 | C 0.412 | L 1.39 | M 1.5 | F 1.03 | P 0.317 | G 0.976 | W 0.443 | V 0.986
K269: N 1.23 | G 1.46 | I 1.28 | W 0.728 | C 1.09 | R 1.22 | S 1.41 | F 0.789 | L 1.45 | V 1.22 | T 1.47 | A 0.886 | H 1.49 | Q 1.5 | Y 1.33 | P 1.26
Y272: P 1.38 | V 0.735 | T 1.44 | H 1.08 | G 1.2 | F 1.27 | E 1.28 | I 1.08 | S 0.837 | A 1.33 | L 0.641 | W 1.01 | C 1.13 | M 1.63 | R 0.701 | N 1.71
G251: E 0.412 | L -0.144 | T 1.21 | W -0.00281 | Y 0.258 | I 0.422 | V -0.0264 | P 0.0226 | C -0.00733 | D 0.751 | A 0.598 | S 1.01 | F 0.127 | R 0.411
I274: M 0.974 | A 0.907 | Q 1.62 | C 0.973 | N 1.27 | F 1.13 | G 1.05 | D 0.889 | H 0.363 | L 1.02
F264: S 0.597 | L 1.1 | T 0.96 | Y 1.06 | E 1.57 | G 1.01 | R 0.806 | P 1.4 | I 0.658 | V 0.678 | W 0.216 | A 1.16
E265: L 1.18 | A 1.3 | S 1.49 | F 1.08 | C 1.67 | D 1.31 | M 1.25 | G 0.962 | V 1.41 | Q 0.752 | W 1.57 | I 1.42 | T 1.56 | R 1.41
D258: W 1.5 | S 1.42 | C 1.16 | L 0.539 | A 1.33 | M 0.663 | F 0.78 | E 0.739 | Y 1.49 | H 1.62 | V 1.39 | R 1.29 | G 1.47
Y253: V 1.56 | F 0.587 | E 1 | G 0.758 | D 0.768 | L 1.27 | C 0.457 | S 0.394 | W 0.66
L263: C 1.11 | W -0.0482 | Q 0.281 | D 0.549 | F 0.857 | S 1.18 | G 0.983 | A 0.39 | R 1.39 | T 1.22 | I 1.57 | M 0.891 | E 1.04 | V 0.76
A273: T 1.46 | W 1.65 | G 0.649 | I 1.46 | K 0.589 | S 0.646 | N 1.3 | L 0.931 | P 1.4 | F 0.993 | R 1.13 | H 0.901 | C 0.584 | M 0.796 | D 0.919 | V 0.694
G257: V 1.23 | Y 1.57 | E 1.32 | I 1.66 | A 1.25 | R 0.694 | L 0.765 | S 1.39
K262: E 1.31 | G 1.35 | R 1.18 | P 1.56 | H 1.52 | T 1.08 | A 1.23 | F 0.714 | W 1.05 | M 1.17
